According to US10925971B2, “Methods of treating PRLR positive breast cancer” (Regeneron Pharmaceuticals, Inc., priority 2016, dated 2021):

T1: monkey PRLR on HEK293/mfPRLR cells (Macaca fascicularis, UniProt A0A2K5WXK1)
T1 construct: HA; expressed in transfected cells; host or cells: HEK293
T1 sequence (A0A2K5WXK1 25-619): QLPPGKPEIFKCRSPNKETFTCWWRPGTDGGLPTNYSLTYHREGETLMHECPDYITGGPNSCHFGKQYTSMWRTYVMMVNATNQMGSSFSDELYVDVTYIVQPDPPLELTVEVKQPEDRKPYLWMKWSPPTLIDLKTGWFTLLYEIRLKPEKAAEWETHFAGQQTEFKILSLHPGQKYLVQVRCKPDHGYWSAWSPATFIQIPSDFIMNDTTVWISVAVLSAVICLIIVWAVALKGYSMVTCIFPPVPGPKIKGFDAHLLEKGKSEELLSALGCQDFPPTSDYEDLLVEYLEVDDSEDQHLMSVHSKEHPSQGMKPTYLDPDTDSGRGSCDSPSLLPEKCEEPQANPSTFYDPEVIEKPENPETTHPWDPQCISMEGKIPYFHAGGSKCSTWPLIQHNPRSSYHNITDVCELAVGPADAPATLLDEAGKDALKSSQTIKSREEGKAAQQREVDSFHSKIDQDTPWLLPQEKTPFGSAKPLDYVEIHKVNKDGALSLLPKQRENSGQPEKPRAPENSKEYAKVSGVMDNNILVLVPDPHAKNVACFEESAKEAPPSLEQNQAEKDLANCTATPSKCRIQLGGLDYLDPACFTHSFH

T2: mouse PRLR on HEK293/mPRLR cells (Mus musculus, UniProt Q08501)
T2 construct: HA; expressed in transfected cells; host or cells: HEK293
T2 sequence (Q08501 20-608): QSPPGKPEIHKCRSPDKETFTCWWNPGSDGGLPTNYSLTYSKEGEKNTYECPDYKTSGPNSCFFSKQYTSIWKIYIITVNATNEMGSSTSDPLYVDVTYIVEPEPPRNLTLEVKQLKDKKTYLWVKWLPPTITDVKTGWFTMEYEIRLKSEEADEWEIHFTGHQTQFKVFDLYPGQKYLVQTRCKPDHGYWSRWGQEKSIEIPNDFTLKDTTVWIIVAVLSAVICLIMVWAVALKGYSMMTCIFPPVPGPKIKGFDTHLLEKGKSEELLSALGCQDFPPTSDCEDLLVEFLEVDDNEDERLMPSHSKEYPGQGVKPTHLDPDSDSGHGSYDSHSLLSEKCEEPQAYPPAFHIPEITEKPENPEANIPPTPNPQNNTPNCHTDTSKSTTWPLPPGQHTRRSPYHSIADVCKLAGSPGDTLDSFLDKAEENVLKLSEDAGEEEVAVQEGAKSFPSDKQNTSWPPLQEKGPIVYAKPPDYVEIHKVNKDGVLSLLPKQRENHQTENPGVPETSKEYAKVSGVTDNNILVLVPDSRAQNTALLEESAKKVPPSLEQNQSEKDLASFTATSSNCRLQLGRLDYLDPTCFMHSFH

T3: human PRLR on HEK293/hPRLR cells (Homo sapiens, UniProt P16471)
T3 construct: HA; expressed in transfected cells; host or cells: HEK293
T3 sequence (P16471 25-622): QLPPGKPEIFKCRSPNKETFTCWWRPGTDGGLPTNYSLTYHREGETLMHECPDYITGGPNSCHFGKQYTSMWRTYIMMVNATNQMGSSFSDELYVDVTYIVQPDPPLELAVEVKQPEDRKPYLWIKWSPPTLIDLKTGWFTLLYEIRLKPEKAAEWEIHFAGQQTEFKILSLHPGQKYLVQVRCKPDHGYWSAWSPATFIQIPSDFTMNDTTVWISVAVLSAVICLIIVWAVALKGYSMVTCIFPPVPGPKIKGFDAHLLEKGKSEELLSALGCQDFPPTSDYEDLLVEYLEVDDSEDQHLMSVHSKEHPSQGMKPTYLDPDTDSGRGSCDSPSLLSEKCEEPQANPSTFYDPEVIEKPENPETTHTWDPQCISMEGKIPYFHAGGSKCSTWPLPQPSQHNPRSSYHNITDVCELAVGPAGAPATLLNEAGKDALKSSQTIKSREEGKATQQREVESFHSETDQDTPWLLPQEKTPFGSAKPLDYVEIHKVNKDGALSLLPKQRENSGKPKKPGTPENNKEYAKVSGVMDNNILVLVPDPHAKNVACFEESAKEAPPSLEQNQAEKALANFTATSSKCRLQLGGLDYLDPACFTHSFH

T4: native PRLR expressing T47D cells (Homo sapiens, UniProt P16471)
T4 construct: a native PRLR expressing cell line (T47D); endogenous in cells; host or cells: T47D
T4 sequence (P16471 25-622): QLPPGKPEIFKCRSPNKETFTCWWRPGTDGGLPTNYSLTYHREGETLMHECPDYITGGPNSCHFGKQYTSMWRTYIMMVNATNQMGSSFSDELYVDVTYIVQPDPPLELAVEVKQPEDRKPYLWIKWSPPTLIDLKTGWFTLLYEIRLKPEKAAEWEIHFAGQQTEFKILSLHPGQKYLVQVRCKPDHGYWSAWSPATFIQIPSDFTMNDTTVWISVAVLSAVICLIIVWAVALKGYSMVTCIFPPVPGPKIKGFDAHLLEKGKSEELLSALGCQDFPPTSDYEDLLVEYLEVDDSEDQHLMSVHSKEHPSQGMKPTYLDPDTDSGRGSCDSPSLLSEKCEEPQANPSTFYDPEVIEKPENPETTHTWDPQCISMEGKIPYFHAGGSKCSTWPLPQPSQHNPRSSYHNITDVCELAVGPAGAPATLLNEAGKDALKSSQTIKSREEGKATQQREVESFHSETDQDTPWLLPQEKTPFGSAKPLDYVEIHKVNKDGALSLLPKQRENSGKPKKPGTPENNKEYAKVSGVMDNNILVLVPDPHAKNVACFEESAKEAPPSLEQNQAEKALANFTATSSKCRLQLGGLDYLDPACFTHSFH


Key:
[1] = target: T5, monomeric human PRLR (hPRLR.mmh; SEQ ID NO:401) (Homo sapiens, UniProt P16471); assay: Surface plasmon resonance (Biacore T200), antibody-capture format; format: binding; conditions: analyte hPRLR.mmh
T5 construct: soluble monomeric (hPRLR.mmh); mmh (myc-myc-hexahistidine) (C)
T5 sequence (P16471 with tags, fused parts or gaps): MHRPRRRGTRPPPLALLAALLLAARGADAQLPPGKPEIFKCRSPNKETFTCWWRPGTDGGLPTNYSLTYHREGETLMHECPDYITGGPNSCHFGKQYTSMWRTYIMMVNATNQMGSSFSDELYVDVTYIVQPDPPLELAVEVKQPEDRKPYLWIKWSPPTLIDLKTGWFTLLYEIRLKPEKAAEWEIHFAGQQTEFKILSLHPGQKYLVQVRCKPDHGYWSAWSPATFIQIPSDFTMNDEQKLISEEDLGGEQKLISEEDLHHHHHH
Description: (§1) Antibodies, expressed as human IgG1 Fc (i.e., “H1H” designations), were captured onto an anti-human Fc sensor surface (mAb-capture format), and soluble monomeric (hPRLR.mmh; SEQ ID NO:401, or Macaca fascicularis (mf) PRLR.mmh; SEQ ID NO:403) or dimeric (hPRLR.mFc; SEQ ID NO:402) PRLR protein was injected over the sensor surface. Measurements were conducted on a T200 Biacore instrument. Kinetic association (ka) and dissociation (kd) rate constants were determined by processing and fitting the data to a 1:1 binding model using Scrubber 2.0 curve fitting software.

[2] = tested on: Macaca fascicularis PRLR (mfPRLR.mmh; SEQ ID NO:403); assay: as above; format: binding; conditions: analyte mfPRLR.mmh
Macaca fascicularis PRLR (mfPRLR.mmh; SEQ ID NO:403), sequence (as listed by the source): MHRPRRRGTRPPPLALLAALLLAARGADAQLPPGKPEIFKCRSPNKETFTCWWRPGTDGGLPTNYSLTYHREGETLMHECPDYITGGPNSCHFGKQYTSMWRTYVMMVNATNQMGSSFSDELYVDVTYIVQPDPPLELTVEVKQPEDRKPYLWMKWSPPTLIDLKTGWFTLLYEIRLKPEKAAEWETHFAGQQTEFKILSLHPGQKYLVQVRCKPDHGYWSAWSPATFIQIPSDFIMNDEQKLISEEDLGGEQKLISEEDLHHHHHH
Description: as §1

[3] = target: T6, dimeric human PRLR (hPRLR.mFc; SEQ ID NO:402) (Homo sapiens, UniProt P16471); assay: as above; format: binding; conditions: analyte hPRLR.mFc
T6 construct: dimeric (hPRLR.mFc)
T6 sequence (P16471 with tags, fused parts or gaps): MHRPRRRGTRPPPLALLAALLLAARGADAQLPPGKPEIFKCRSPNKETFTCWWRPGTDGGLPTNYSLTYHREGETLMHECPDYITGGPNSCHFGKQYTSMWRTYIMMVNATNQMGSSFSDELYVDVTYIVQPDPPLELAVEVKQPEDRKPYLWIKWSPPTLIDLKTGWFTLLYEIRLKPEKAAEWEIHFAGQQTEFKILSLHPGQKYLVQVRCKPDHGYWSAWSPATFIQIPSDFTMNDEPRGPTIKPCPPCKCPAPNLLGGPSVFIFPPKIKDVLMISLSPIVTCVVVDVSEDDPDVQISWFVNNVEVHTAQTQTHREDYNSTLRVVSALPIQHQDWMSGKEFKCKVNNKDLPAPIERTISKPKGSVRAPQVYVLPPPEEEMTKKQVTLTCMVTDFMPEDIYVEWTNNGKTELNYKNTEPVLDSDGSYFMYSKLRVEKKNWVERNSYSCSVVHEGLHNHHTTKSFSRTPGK
Description: as §1

[4] = tested on: HEK293 parental cells; assay: FACS cell surface binding; set-up: species or system human
Description: (§2) The ability of anti-PRLR antibodies to selectively bind PRLR expressing cell lines was next determined. Human, monkey Macaca fascicularis, and mouse PRLR constructs with an HA tag were stably introduced into HEK293 cells via Lipofectamine 2000-mediated transfection methodology. Transfectants (HEK293/hPRLR, HEK293/mfPRLR and HEK293/mPRLR) were selected for at least 2 weeks in complete growth media plus G418.
(§3) Cell surface expression of PRLR on 293/hPRLR cells was assessed via FACS analysis. Briefly, 1×10^5 cells were incubated with 10 μg/ml of Control antibody I, or an isotype control for 30 min on ice in antibody dilution buffer. Following two washes with antibody dilution buffer, cells were incubated with 10 μg/ml of PE conjugated anti-human secondary antibodies for 30 min on ice. Following two additional washes, samples were run on a Hypercyt® cytometer and analyzed in ForeCyt™ (IntelliCyt, Albuquerque, N. Mex.). The mean fluorescence intensities (MFI) were expressed as fold change above isotype control levels (background). FACS binding confirmed that Control I selectively bound to 293/hPRLR expressing cells with MFIs that were 30 fold above background (isotype ctrl) levels and less than 2 fold binding on parental cells.
(§4) Next, the anti-PRLR antibodies were tested via FACS for selective binding to the engineered overexpressing PRLR HEK293 cell lines, as well as to non-expressing HEK293 cells and a native PRLR expressing cell line (T47D).

[5] = target: T1, monkey PRLR on HEK293/mfPRLR cells; assay: FACS cell surface binding
Description: as §2, §3, §4

[6] = target: T2, mouse PRLR on HEK293/mPRLR cells; assay: FACS cell surface binding
Description: as §2, §3, §4

[7] = target: T3, human PRLR on HEK293/hPRLR cells; assay: FACS cell surface binding
Description: as §2, §3, §4

[8] = target: T4, native PRLR expressing T47D cells; assay: FACS cell surface binding
Description: as §3, §4

ka ([1]; 25° C.) [M/s]	kd ([1]; 25° C.) [s⁻¹]	ka ([1]; 37° C.) [M/s]	kd ([1]; 37° C.) [s⁻¹]	kd ([2]; 25° C.) [s⁻¹]	kd ([2]; 37° C.) [s⁻¹]	ka ([3]; 25° C.) [M/s]	kd ([3]; 25° C.) [s⁻¹]	ka ([3]; 37° C.) [M/s]	kd ([3]; 37° C.) [s⁻¹]	FACS Cell Binding [5] [Fold Above Background]	FACS Cell Binding [6] [Fold Above Background]	FACS Cell Binding [7] [Fold Above Background]	FACS Cell Binding [8] [Fold Above Background]	Molecule	ka ([2]; 25° C.) [M/s]	ka ([2]; 37° C.) [M/s]	FACS Cell Binding [4] [Fold Above Background]
208000	0.000127	339000	0.000309	0.000141	0.000267	257000	6.05e-05	436000	9.84e-05	26	1	37	40	H1H6781P: fully human anti-PRLR antibody, human IgG1 Fc; HCVR/LCVR SEQ ID NOs 50/58 (antibody, V domains shown) VH: EVQLVESGGDLVQPGESLRLSCTASGFTFNSYEMNWVRQAPGKGLEWVSYISSSGGTKYYVDSVKGRFTISRDNAKKSLYLQMNSLRADDTALYYCARLNGVDVFDIWGQGTMVTVSS VL: DIQMTQSPSSLSASVGDRVTITCRASQDIFNYLAWFQQKPGKVPELLISAASTLQSGVPSRFSGSGSGTYFTLTISSLQPEDIATYYCQRYNSAPLTFGGGTKVEIK	143000	247000	1
301000	0.000171	426000	0.000484	0.000167	0.00045	263000	6.07e-05	456000	0.000117	26	2	37	40	H1H6785P: fully human anti-PRLR antibody, human IgG1 Fc; HCVR/LCVR SEQ ID NOs 98/106 (antibody, V domains shown) VH: EVQLVESGGGLVQPGGSLRLSCAASGFTFSSYEMNWVRQAPGKGLEWISYISSRGGTIYYADSIKGRFTIYRDNARNSLYLQMNSLRAEDTAIYYCARLSGVDIFDIWGQGTMVTVSS VL: DIQMTQSPSSLSASVGDRVTITCRASQGISNYLAWYQQKPGKVPKLLIYFASTLQSGVPSRFSGGGSGTDFTLTISSLQPEDVATYYCQRYNSAPLTFGGGTKVEIK	227000	297000	1
692000	0.000179	948000	0.000455	0.000208	0.000558	651000	6.45e-05	801000	0.000103	26	2	36	38	H1H6762P: fully human anti-PRLR antibody, human IgG1 Fc; HCVR/LCVR SEQ ID NOs 2/10 (antibody, V domains shown) VH: QVQLVESGGGVVQPGRSLRLSCAASGFTFSHYGMVWVRQPPGKGLEWVALISFDGTTKYYADSVKGRFTISRDNSKNTLYLQMNSLRAEDTAVYFCVGAIAAAAFDLWGRGTLVTVSS VL: EIVMTQSPATLSVSPGERATLSCRASQSVSSDLAWYQQKPGQAPRLLIYSASARATGIPARFTGSGSGTDFTLTISSLQSEDFAVYYCQQYNNWPMYTFGQGTKLEIK	408000	679000	1
544000	0.000864	777000	0.00314	0.000814	0.00316	1.12e+06	0.000101	1.37e+06	0.00014	29	1	8	37	H1H6976N: anti-PRLR antibody, human IgG1 Fc form of H2M6976N of Table 1; HCVR/LCVR SEQ ID NOs 386/394 (antibody, V domains shown, human IgG1 Fc) VH: EVQLLESGGGFVQPGGSLRLSCAASGFTFSSYAMSWVRQAPGKGLEWVSIISSNGRYTYYADSVKGRFTISRDNSKNTLYLQMNSLRAEDTAVYYCATVTGDWFDPWGQGTLVTVSS VL: DIQLTQSPSFLSASVGDRVTITCWASQDIDISLAWYQQKPGKAPKLLIYAASTLQSGVPSKFSGSGSGTDFTLTISSLQPEDFSTYYCQQLNSYPITFGQGTRLDIK	466000	603000	1
